{"source": "paper doi:10.1101/2023.12.18.572142", "about": "(bioRxiv, 2023)", "molecules": {"B1": {"name": "mouse CD5L (natural protein, UniProt Q9QWK4 22-352, looked up)", "chain": "ESPTKVQLVGGAHRCEGRVEVEHNGQWGTVCDDGWDRRDVAVVCRELNCGAVIQTPRGASYQPPASEQRVLIQGVDCNGTEDTLAQCELNYDVFDCSHEEDAGAQCENPDSDLLFIPEDVRLVDGPGHCQGRVEVLHQSQWSTVCKAGWNLQVSKVVCRQLGCGRALLTYGSCNKNTQGKGPIWMGKMSCSGQEANLRSCLLSRLENNCTHGEDTWMECEDPFELKLVGGDTPCSGRLEVLHKGSWGSVCDDNWGEKEDQVVCKQLGCGKSLHPSPKTRKIYGPGAGRIWLDDVNCSGKEQSLEFCRHRLWGYHDCTHKEDVEVICTDFDV"}, "B2": {"name": "D1 domain of FcμR (domain or fragment, human)", "chain": "RILPEVKVEGELGGSVTIKCPLPEMHVRIYLCREMAGSGTCGTVVSTTNFIKAEYKGRVTLKQYPRKNLFLVEVTQLTESDSGVYACGAGMNTDRGKTQKVTLNVHS"}, "B3": {"name": "human CD5L (CD5 antigen-like) (natural protein, UniProt O43866 20-347, looked up)", "chain": "SPSGVRLVGGLHRCEGRVEVEQKGQWGTVCDDGWDIKDVAVLCRELGCGAASGTPSGILYEPPAEKEQKVLIQSVSCTGTEDTLAQCEQEEVYDCSHDEDAGASCENPESSFSPVPEGVRLADGPGHCKGRVEVKHQNQWYTVCQTGWSLRAAKVVCRQLGCGRAVLTQKRCNKHAYGRKPIWLSQMSCSGREATLQDCPSGPWGKNTCNHDEDTWVECEDPFDLRLVGGDNLCSGRLEVLHKGVWGSVCDDNWGEKEDQVVCKQLGCGKSLSPSFRDRKCYGPGVGRIWLDNVRCSGEEQSLEQCQHRFWGFHDCTHQEDVAVICSG"}}, "experiment_in_all_cases": "SPR", "key": {"cat Fcμ–J complex (cat)": {"molecular_target": "cat Fcμ–J complex (cat)"}, "mouse Fcμ–J complex": {"molecular_target": "T1, mouse Fcμ–J complex (mouse, UniProt P01872 104-454; P01592 22-159)", "T1 sequence (looked up) 1": "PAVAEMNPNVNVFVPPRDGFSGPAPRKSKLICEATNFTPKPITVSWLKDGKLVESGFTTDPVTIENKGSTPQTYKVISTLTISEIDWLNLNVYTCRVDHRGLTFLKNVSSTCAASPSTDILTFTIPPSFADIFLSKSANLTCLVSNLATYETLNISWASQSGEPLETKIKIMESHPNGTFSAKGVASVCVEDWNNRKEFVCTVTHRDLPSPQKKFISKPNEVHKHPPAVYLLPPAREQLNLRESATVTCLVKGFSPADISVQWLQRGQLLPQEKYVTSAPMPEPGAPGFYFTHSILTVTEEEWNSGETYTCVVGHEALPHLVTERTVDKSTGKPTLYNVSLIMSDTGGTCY", "T1 sequence (looked up) 2": "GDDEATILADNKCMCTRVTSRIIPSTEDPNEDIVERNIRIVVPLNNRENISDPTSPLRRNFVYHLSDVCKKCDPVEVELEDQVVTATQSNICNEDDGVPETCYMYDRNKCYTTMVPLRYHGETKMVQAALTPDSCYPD"}, "[1]": {"molecular_target": "T2, human Fcμ–J complex (pentameric IgM core: IgM-Fc pentamer and J chain) (human, UniProt P01871-1 106-453; P01591 23-159)"}, "[2]": {"molecular_target": "T2, human Fcμ–J complex (pentameric IgM …)", "remark": "listed apart in the source"}, "[3]": {"molecular_target": "T2, human Fcμ–J complex (pentameric IgM …)", "remark": "listed apart in the source"}}, "note": "Where two headings read alike, the source gives them in different places.", "data": [{"molecule": "cat CD5L (3-SRCR isoform) (from UniProt A0A1E1GEY0 20-355) (natural protein)", "values": [{"measurement": "Kd", "setting": "cat Fcμ–J complex (cat)", "value": 11, "unit": "nM"}]}, {"molecule": "B1", "values": [{"measurement": "Kd", "setting": "mouse Fcμ–J complex", "value": 5, "unit": "nM"}]}, {"molecule": "B2", "values": [{"measurement": "Kd", "setting": "[1]", "value": 0.3, "unit": "nM"}, {"measurement": "Kd", "setting": "[2]", "value": 7.2, "unit": "nM"}]}, {"molecule": "B3", "values": [{"measurement": "Kd", "setting": "[3]", "value": 30, "unit": "nM"}]}]}
